Data taken from patent US20250101446A1, “METHOD FOR GENETIC TRANSFORMATION OF PLANT ORGANELLE GENOME AND USES THEREOF” (Solar Grants Biotechnology Inc., priority 2022, published 2025).

Experiments:
[1] = system: human metastatic breast cancer cell line MDA-MB-231; experiment: IL-6 secretion by MDA-MB-231 cells (P1 stimulation, plantakine pre-incubation; ELISA); type: cell-based; settings: pre-incubated 3 h at the indicated concentrations
Protocol: IL-6 secretion by the human metastatic breast cancer cell line MDA-MB-231 into the conditioned media was measured by ELISA. The cells were pre-incubated for 3 h in the presence of plant-produced recombinant IL-38 or IL-37b at the indicated concentrations (ng/ml) prior to stimulation with peptide P1 (10 mM). PBS (1×) was added to the control. Shown are the average results of 3 independent experiments. ** P<0.01; * P<0.05, compared with the control.
Correct folding of plant-produced IL-38 and IL-37b anti-inflammatory cytokines was assessed by enzyme-linked immunosorbent assay (ELISA) using the DuoSet Human IL-38/IL-1F10 kit (R&D systems) and the Human IL-37/IL-1F7 uncoated ELISA kit (Invitrogen), respectively, following the instructions of the manufacturers. Secreted IL-6 was assessed using the Human IL-6 Uncoated ELISA kit (Invitrogen).

[2] = biological target: the molecule itself; experiment: self-association (dimers and multimers) seen on SDS-PAGE and western blot
Protocol: Western blots membranes were visualized using the enhanced chemiluminescence (ECL) detection kit (GE Healthcare, Cat. No. RPN2232) and imaged with the DNR Bio-Imaging System MicroChemi (RANCOM A/S, Birkerød, Denmark). Densitometry was performed using the TotalLab TL 100 software (Nonlinear Dynamics, Durham, NC).

IA-stimulated PBMCs = experiment: Counts of significant modulations over all treatments of IA-stimulated PBMCs (LPS or PHA); type: cell-based, human
Protocol: The bioactivity of our plantakines IL-37b and IL-38 was assessed by monitoring the secretion of 11 cytokines, generally regarded as inflammatory markers, from PBMCs stimulated with an IA. Freshly isolated human PBMCs were subjected to various treatments-combinations of the IAs with the plantakines at different concentrations. Two different model IAs were used, either the bacterial lipopolysaccharides (LPS) or a lectin from Phaseolus vulgaris (phytohaemagglutinin, PHA); each of the IAs was applied onto cells separately, each IA was applied at two concentrations: LPS at 150 and 300 μg/mL; PHA at 5 and 10 μg/mL. Each IA at each concentration was applied in combination with one of the two plantakines, each of them at three different concentrations: 1, 10 and 100 ng/ml of the monomeric forms present in the purified extracts. Also included were treatments comprised of either IA at their lower concentrations, in combination with both plantakines at 10 ng/ml concentration in order to assess possible synergistic effects. Cells with only IAs applied represented the reference (positive controls for each concentration), cells without any treatment represented the basal level (negative control). The levels of eleven different pro-inflammatory cytokines secreted into the medium from the PBMCs-GM-SCF, IFNγ. TNFα, IL-1α, IL-1β, IL-6, IL-8, IL-22, IL12, IL-17 and IL-10 were compared between the treatments and the controls. We applied Generalized Estimating Equation (GEE) model for the statistical data analysis. This statistical approach allows for nested observations and was used to test the effects of the plantakines IL-37b and IL-38 and their dosage in the context of IA-stimulated PBMCs inflammatory responses. […]
Non-linear logarithm transformation was performed to address non-normality of distribution of Luminex-derived numeric data. […] Separate analyses were conducted for each of the 11 monitored cytokines and each inflammatory agent/concentration combination. […]

[3] = separate applications, either IA, all concentrations

B1: plant-produced recombinant human IL-38, mature form C2-W152 with C-terminal 7xHIS tag (ligand)
chain: CSLPMARYYIIKYADQKALYTRDGQLLVGDPVADNCCAEKICILPNRGLARTKVPIFLGIQGGSRCLACVETEEGPSLQLEDVNIEELYKGGEEATRFTFFQSSSGSAFRLEAAAWPGWFLCGPAEPQQPVQLTKESEPSARTKFYFEQSWHHHHHHH
notes: range 2-152; also called rhIL-38; plantakine IL-38
attenuating effect on P1-induced IL-6 secretion (in words) [1]: dose-dependent | binding result [2]: binds | attenuated rather than increased secretion of inflammatory cytokines, frequency ratio (IA-stimulated PBMCs; all significant treatments): 1.7 times | number of treatments in which secretion of inflammatory cytokines was increased (IA-stimulated PBMCs; [3]): 22 treatments | number of treatments in which secretion of inflammatory cytokines was suppressed (IA-stimulated PBMCs; [3]): 30 treatments
